# Test results published in the nanobody polyreactivity screen of Harvey et al. (2022).
# Assay: yeast display, Sf9 membrane polyspecificity reagent, FACS + sequencing; frameworks hold sequencing errors
# Method in brief: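 Nanobodies from a synthetic yeast display library (Saccharomyces cerevisiae BJ5465), induced 36–48 hours with galactose, were stained 1 hour at 4 °C with 10% biotinylated, detergent-solubilized Sf9 membrane reagent, enriched on streptavidin microbeads, then FACS-sorted. Anti-HA (expression) and streptavidin (reagent binding) fluorescence set low and high (top ~1%) gates. Polyreactivity labels come from the gate of origin. Genes were colony-PCR amplified, MiSeq 2 × 250 sequenced and filtered by CDR length.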
row,Sequence,polyreactivity (PSR sort gate)
1,QVQLVESGGGLVQAGGSLRLSCAASGGTFYVKDMAWYRQAPWNERDLVATITYSGTSTYYADSVKGRFTISRDNAKNTVYLQMKSLKPEDTAVYYCATDVLLYFEPVNLDYWGQGTQVTVSS,low polyreactivity
2,QVQLVESGGGLVQAGGSLRLSCAASGGTFYVNAMGWYRQAPGKERELVAAISYRGGRTYYADSVKGRFTISRDNAKNTVYVQMNSVKPEDTAVYYCAAEYSYDHSTGYDYWGQGTQVTVSS,low polyreactivity
3,QVQLVESGGGLVQAGGSLRLSCAASGGTFYVYAMGWYRQAPGKERELVAAISTSDGITYYADSVKGRFTLSRDNAKNTVYLQMNSLKPEDTAVYYCAAEFFSSFTYAYDYWGQGTQVTVSS,high polyreactivity
4,QVQLVESGGGLVQAGGSLRLSCAASGGTFYYNTMGWYRQAPGQERELVAAIRSTGGSTYDADSVKGRFTISRDNAKNTVYLQMNSLKPEDTAVYYCAKKVYTRRRGSDYWGQGTQVTVSS,high polyreactivity
5,QVQLVESGGGLVQAGGSLRLSCAASGGTFYYYAMGWYRQAPGKERELVAAITKNGGSTYYADSVKGRFTISRDNAKNTVYLQMNSLKPEDTAVYYCAASRFGRMDYWGQGTQVTVSS,high polyreactivity
6,QVQLVESGGGLVQAGGSLRLSCAASGGTIENYAMGWYRQAPGKERELVAAISSGGSTNYADSVKGRFTISRDNAKNTVYLQMNSLKPEDTAVYYCATRGIWKKVPYYYWGQGTQVTVSS,low polyreactivity
7,QVQLVESGGGLVQAGGSLRLSCAASGGTIYLNAMGWYRQAPRKERELVAGITWGGGRTYYADSVKGRFTISRDNAKNTVYLQMNSLKPEDTAVYYCASGAWRGPYSGYYYWGQGTQVTVSS,low polyreactivity
8,QVQLVESGGGLVQAGGSLRLSCAASGGTLEVYAMGWYRQAPGKEREFVAAISWSGGRTYYADSVKGRFTISRDNAKNTVYLQMNSLKPEDTAVYYCATRDRAGYYYWGQGTQVTVSS,high polyreactivity
9,QVQLVESGGGLVQAGGSLRLSCAASGGTLFQNAMGWYRQAPGKERELVATIRVSGGITYYADSVKGRFTISRDNAKNTVYLQMNSLKPEDTAVYYCAKDSADSRAVGDVLTFDYWGQGTQVTVSS,low polyreactivity
10,QVQLVESGGGLVQAGGSLRLSCAASGGTLGLNAMGRTRQAPGKEREFVAAINRSGGSTRYADSVKGRFTISRDNAKNTVYLQMISLKPEDTAVYYCNAASWTFQTTPKYDYWGQGTQVTVSS,high polyreactivity
11,QVQLVESGGGLVQAGGSLRLSCAASGGTLRGYAMGWYRQAPGKERELVASITYTSGSTYYADSVKGRFTISRDNAKNTVYLQINSLKPEDTAVYYCAAVARTVPSYSYNYWGQGTKVTVSS,high polyreactivity
12,QVQLVESGGGLVQAGGSLRLSCAASGGTLSYYAMGWYRQAPGKERELVAGISRRGGSTYYADSVKGRFTISRDNAKNTVYLQMNSLNPEDTAVYYCAADSNRHYYYWGQGTQVTVSS,high polyreactivity
13,QVQLVESGGGLVQAGGSLRLSCAASGGTLYIYAMGWDRQAPGKERELVAAIRGRGGSTYADSVKGRCTISRDNAKNTVYLQMNSLKPEDTAVYYCAASGIRYWLPYDYWGQGTQVTVSS,high polyreactivity
14,QVQLVESGGGLVQAGGSLRLSCAASGGTRFTNAMGWYRQAPGKEREMVAAISWRGGRTYYADSVKGRFTISRDNAKNTVYLQMNSQKPEDTAVYYCAAASAAGYDYWGQGTQVTVSS,low polyreactivity
15,QVQLVESGGGLVQAGGSLRLSCAASGGTYVGYSMGWYRQAPGKERELDATITRRGGNTYYADSVKGRFTISRDNAKNTVYLQMNSLKPEDTAVYYCAARKKGSRVGYDYWGQGTQVTVSS,high polyreactivity
16,QVQLVESGGGLVQAGGSLRLSCAASGGYGMGWYRQAPGKERELVAAISYSGGSTYYADSVKGRFTISRDNAKNTVYLQMNSLKPEDTAVYYCNVLRGSLNGWWPGYDYWGQGTQVTVSS,low polyreactivity
17,QVQLVESGGGLVQAGGSLRLSCAASGHIFDHYAMGWYRQAPGKERELVAAISTSGTSTYYADSVKGRFTISRDNAKNTVYLQMNSLKPEDTAVYYCNAGGGHVGDVRYPYRYWRYNYWGQGTQVTVSS,low polyreactivity
18,QVQLVESGGGLVQAGGSLRLSCAASGHIFFYYTMGWYRQAPGKERELVAGIPIGGSTNYADSVKGRFTISRDNAKNTVYLQMNSLKPVDTAVYYFNVVKYVYIYSFWEYYYWGQGTQVTVSS,low polyreactivity
19,QVQLVESGGGLVQAGGSLRLSCAASGHIFPTNAMGWYRQAPGKERELVAVISESVGSTYYADSVKGRFTISRDNAKNTVYLQMNSLKPEDTAVYYCAVRSRTPRAYYYWGQGTQVTVSS,low polyreactivity
20,QVQLVESGGGLVQAGGSLRLSCAASGHIFYAYAMASYRQAPGKERELVASITYRGVSTYYADSVKARFTISRDNAKNTVYLQMHSLKPEDTAVYYCAAGRSRYLWFGRDFDYWGQGTQVTVSS,low polyreactivity
21,QVQLVESGGGLVQAGGSLRLSCAASGHNFFYYTMVWYRPAPGKERELVAGITIGGSTNYADSVKGRFTISRDNAKNNVYLVMNSLKPEDTAVYYCNVDKYVYIYSYWEYYYWGQGTQVTVSS,low polyreactivity

row,Sequence,polyreactivity (PSR sort gate)
1,QVQLVESGGGLVQAGGSLRLSCAASGHTFAYNAMGWYRQAPGKEREFVAAITWSTDNTYYADSVKGRFTISRDNAKNTVYLQMNSLKPEDTAVYYCAKDAAESYRYGYWGQGTQVTVSS,low polyreactivity
2,QVQLVESGGGLVQAGGSLRLSCAASGHTFYYKALGWYTQAPGKEREFVATITESGTSTYYADSVKGRCTLSRDNAKNTVYLQMKSLKPEDTAGYYCAAQYWYVGGIALYDYWGQGTQVTVSS,low polyreactivity
3,QVQLVESGGGLVQAGGSLRLSCAASGIFAYYVMGWYRQAPGKERELVADISRGGSTNYADSVKGRFTISRDNAKNTVYLQMISLKPEDSAVYYCNARSYYPWEGYDYWGQGTQVTVSS,low polyreactivity
4,QVQLVESGGGLVQAGGSLRLSCAASGIFDYYAMGWYRQAPGKERELVAAINSSGGSTYYADSVKGRFTISRDNAKNTVYLQMNSLKPEDTAVYYCAAGRYAYLFNYWGQGTQVTVSS,high polyreactivity
5,QVQLVESGGGLVQAGGSLRLSCAASGIFFIYSMGWYRQAPGKERELVADIDSGGPTYYADSVKGRFTISRDNAKNTVYLQMNSLKPEDTAVYYCAVDYSNVDLYSLLFYESDYWGQGTQVTVSS,low polyreactivity
6,QVQLVESGGGLVQAGGSLRLSCAASGIFFLYMGWYRQAPGKERELVAAISDSGGTTYYADSVKGRFTISRDNAKNTVYLQMNSLKPEDTAVYYCAAEIENLNWFYWDYLEYDYWGQGTQVTVSS,low polyreactivity
7,QVQLVESGGGLVQAGGSLRLSCAASGIFGWNAMGWYRQAPGKEREFVAGITYSGTRTYYADSVKGRFTISRDNAKNTVYLQMNSLKPEDPAVYYCAATTGHRNYRSYYWGQGTQVTVSS,high polyreactivity
8,QVQLVESGGGLVQAGGSLRLSCAASGIFGYNARGWYRQAPGKERELVAAITSSGTSTYYADSVKGRFTISRDNAKNTVYLQMNSLKPEDTAVYYCAALHSGTWTGYGYWGQGTQVTVSS,low polyreactivity
9,QVQLVESGGGLVQAGGSLRLSCAASGIFRRYAMGWYRQAPGKERELVATITSGGSTNYADSVKGRFTISRDNAKNTVYLQMNSLKPEDTAVYYCNALYGARRYTRWYTGMDYWGQGTQVTVSS,high polyreactivity
10,QVQLVESGGGLVQAGGSLRLSCAASGIFTRYAMGWYRQAPGKERELVAAISRGGGSTYYADSVKGLFTISRDNAKNTCYLQMNSLKPEDTAVYYCNTYKRPRSPGPKFYYWGEGTQVTVSS,high polyreactivity
11,QVQLVESGGGLVQAGGSLRLSCAASGIFVDNAMGWYRQAPGKERELVAAITSSTDSTYYADSVKGRFAISRDNAKNTVYLQMNSLKPEDTAVDYCAVARPGGFYFLVHYGYGYWGQGTQVTVSS,low polyreactivity
12,QVQLVESGGGLVQAGGSLRLSCAASGIICDYNAMGWYRQAPGKERELVAAITSTDNTNYADSVKGRFTISRDNAKNTVYLQMNSLKPEDTAVYSCNTDYWLSVVYAMDYWGQGTQVTVSS,low polyreactivity
13,QVQLVESGGGLVQAGGSLRLSCAASGIIFANYTMGWYRKAPGKERELVAAISWSGDSTYYADSVKGRFTISRDNAKNTVYLQMNSLKPEDTAVYYCATVNIGYRVWMNYWGQGTQVTVSS,low polyreactivity
14,QVQLVESGGGLVQAGGSLRLSCAASGIIFAQYTMGWYRQAPGKERELVAAINRNGGSTYYADSVKGRFTISRDNAKNSVYLQMNSLKPEDTAVYYCNADALGFRYDYWGQGTQVTVSS,low polyreactivity
15,QVQLVESGGGLVQAGGSLRLSCAASGIIFARYAMGWYRQAPGKERELVASINWTGGNTYADSVKGRFTISRDNAKNSVYLQMNSLNPEDTAVYYCARDFSPGSSDPNASISFDHWGQGTQVTVSS,low polyreactivity
16,QVQLVESGGGLVQAGGSLRLSCAASGIIFAWNVRGWYRQAPGKERELVAAITQSGGGTYYADSVKGRFTISRDNAKNTVYLLMYSLKPEDTGFYYCAAVGYQFYRYVWVDEFDSWGQGTQVTVSS,low polyreactivity
17,QVQLVESGGGLVQAGGSLRLSCAASGIIFAWYVMGWYRQAPGKERELVAAITQSGGSTFYADSVKGRFTISRDNAKNTVYLQMNSLKPEDTAVYYCNTEDFFNVPEMDSWGQGTQVTVSS,low polyreactivity
18,QVQLVESGGGLVQAGGSLRLSCAASGIIFAYAMGWYRQAPGKERELVAAISGRDGSTYYADSVKGRFTISRDNAKNTVYLQMNSLKPEDTAVYYCNAVRGSYSWQMYYWGQGTQVTVSS,low polyreactivity
19,QVQLVESGGGLVQAGGSLRLSCAASGIIFAYNVIGWSRPAPGKERELVAAIRWGGGSTYADSVKGRFTISRDNAKNTVYLQMNSLKPEDTAVYYCATRYRSYYAKYGYNYWGQGTQVTVSS,high polyreactivity
20,QVQLVESGGGLVQAGGSLRLSCAASGIIFAYYAMGWYRQAPGKERELVAAITSGGSTHYADSVKGRFTISRDNAKNTVYLKMNSLKPEDTAVYYCAADVSYYASLFDYGGQGTQVTVSS,low polyreactivity
